Substrate in data set [1]: CCCCCC(=O)N[C@H]1CCOC1=O
Kind of data set: purified protein. To be noted: 0.05 M phosphate buffer, pH 7.0, 35 °C.

Substrate in data set [2]: CCCCCCCC(=O)N[C@H]1CCOC1=O
The data set is described as follows: purified protein. The note with it: 0.05 M phosphate buffer, pH 7.0, 35 °C.

B1: ecPGA (Escherichia coli penicillin G acylase) (Escherichia coli) (protein)
chain 1: EQSSSEIKIVRDEYGMPHIYANDTWHLFYGYGYVVAQDRLFQMEMARRSTQGTVAEVLGKDFVKFDKDIRRNYWPDAIRAQIAALSPEDMSILQGYADGMNAWIDKVNTNPETLLPKQFNTFGFTPKRWEPFDVAMIFVGTMANRFSDSTSEIDNLALLTALKDKYGVSQGMAVFNQLKWLVNPSAPTTIAVQESNYPLKFNQQNSQTA
chain 2: SNMWVIGKSKAQDAKAIMVNGPQFGWYAPAYTYGIGLHGAGYDVTGNTPFAYPGLVFGHNGVISWGSTAGFGDDVDIFAERLSAEKPGYYLHNGKWVKMLSREETITVKNGQAETFTVWRTVHGNILQTDQTTQTAYAKSRAWDGKEVASLLAWTHQMKAKNWQEWTQQAAKQALTINWYYADVNGNIGYVHTGAYPDRQSGHDPRLPVPGTGKWDWKGLLPFEMNPKVYNPQSGYIANWNNSPQKDYPASDLFAFLWGGADRVTEIDRLLEQKPRLTADQAWDVIRQTSRQDLNLRLFLPTLQAATSGLTQSDPRRQLVETLTRWDGINLLNDDGKTWQQPGSAILNVWLTSMLKRTVVAAVPMPFDKWYSASGYETTQDGPTGSLNISVGAKILYEAVQGDKSPIPQAVDLFAGKPQQEVVLAALEDTWETLSKRYGNNVSNWKTPAMALTFRANNFFGVPQAAAEETRHQAEYQNRGTENDMIVFSPTTSDRPVLAWDVVAPGQSGFIAPDGTVDKHYEDQLKMYENFGRKSLWLTKQDVEAHKESQEVLHVQR
Consider B1, for which, in “purified protein [1]”, the Michaelis constant (Km) (commonly the substrate concentration at which the rate is half of its maximum) was found to be 590 ± 70 µM and the kcat (in general, the maximal rate divided by the concentration of active sites) was determined as 0.0090 ± 0.0003 s⁻¹. In addition, in “purified protein [2]”, the Km was found to be 700 ± 40 µM and the kcat came out at 0.0085 ± 0.0003 s⁻¹.

The record behind these values is paper doi:10.1101/2022.01.13.476167v2.
